The record followed here is article PMC5437227.

Assay [1] concerns the target pH-GluA1 S845D phosphomimetic mutant (UniProt P19490).
The target in assay [2] is pH-GluA1 S831D phosphomimetic mutant (UniProt P19490). Nature of the assay: co-IP; HEK293 cells co-transfected with HA-Nedd4-1 and pH-GluA1 constructs, lysed 48 h later (1% Triton X-100 lysis buffer with 10 mM N-ethylmaleimide); immunoprecipitation with anti-GFP antibodies on protein A-Sepharose overnight at 4 °C; blots with anti-HA and anti-GluA1; bound HA-Nedd4-1 quantified and normalized to the wild-type control.

The target in assay [3] is pH-GluA1 S831A phosphodeficient mutant (UniProt P19490). The assay is described as above.
The target of assay [4] is pH-GluA1 S845D phosphomimetic mutant (UniProt P19490). Described as above.
In assay [5] the target is pH-GluA1 S845A phosphodeficient mutant (UniProt P19490). Described as above.

For the substance “HA-Nedd4-1 (from UniProt P46934 1-1319) (enzyme)”, the AMPA-induced ubiquitination of pH-GluA1 S845D in cortical neurons (IP: GFP, blot for ubiquitin), relative to wild type (% of WT control) in assay [1] was 65.2. The HA-Nedd4-1 binding, percent of WT control (% of WT control) in assay [2] came to 112; in assay [3], 74.1; in assay [4], 53.2; in assay [5], 90.9.
